By Kd is commonly meant a measure of binding affinity in units of concentration. In general, koff refers to the first-order rate constant of dissociation. Higher therefore signals a short-lived complex. Broadly, the kon is the second-order rate constant of association. Low readings indicate slower complex formation, high ones faster complex formation.

We go through four molecules from US20200392227A1 (LYVGEN BIOPHARMA, published 2020).

Test in all cases: BLI
Assay [1] deals with T1, human FcRIIA protein (MednaBio, E1033) (human, UniProt P12318 34-218, limits assumed).
T1 construct: Bought; also called FcγRIIA
T1 sequence (looked up): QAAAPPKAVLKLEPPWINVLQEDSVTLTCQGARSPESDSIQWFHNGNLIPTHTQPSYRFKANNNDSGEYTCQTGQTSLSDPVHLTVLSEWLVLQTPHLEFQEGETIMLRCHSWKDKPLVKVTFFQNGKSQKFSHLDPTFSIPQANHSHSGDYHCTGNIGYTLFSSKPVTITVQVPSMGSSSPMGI
The gist of the method:
(§1)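 On an Octet Red96 System, anti-penta-HIS biosensors loaded with commercial human Fc receptor proteins were dipped into test IgG diluted 1:3 over 8 points from 300 nM. Fcγ receptor runs used pH 7.2 and FcRn runs used pH 6. Global fitting of these biolayer interferometry data gave the values for Kd, kon and koff, using a 1:1 binding model.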

Assay [2] concerns the target T2, human FcRn protein (MednaBio, E1032) (human, UniProt P55899 24-297; P61769 21-119).
T2 construct: Bought; assays at pH 6
The gist of the method:
as §1

In assay [3] the target is T1, human FcRIIA protein (MednaBio, E1033). An outline of the steps:
as §1
The source holds these as a separate data set.

Assay [4] concerns the target T2, human FcRn protein (MednaBio, E1032). An outline of the steps: as §1
This is another data set of the same source.

Assay [5] addresses T1, human FcRIIA protein (MednaBio, E1033). The gist of the method:
as §1
The source holds these as a separate data set.

In assay [6] the target is T2, human FcRn protein (MednaBio, E1032). The gist of the method:
as §1
The source holds these as a separate data set.

Assay [7] addresses T1, human FcRIIA protein (MednaBio, E1033). The gist of the method:
as §1
This is another data set of the same source.

Assay [8] concerns the target T2, human FcRn protein (MednaBio, E1032). An outline of the steps:
as §1
The source holds these as a separate data set.

In assay [9] the target is T1, human FcRIIA protein (MednaBio, E1033). Here is the method:
(§2) These IgG mutants were tested for binding to a panel of human Fc receptors (FcRs), including FcRn, using the Octet Red96 System (ForteBio, Model #Red96). Human FcR proteins were purchased commercially (FcRn, MednaBio, E1032; FcRI, MednaBio, E1031; FcRIIA, MednaBio, E1033; FcRIIB/C, MednaBio, E1034; FcRIIIA-F158, MednaBio, E1036; FcRIIIA-V158, MednaBio, E1035; FcRIIIB, MednaBio, E1037). All Fey receptor assays were performed at pH 7.2; all FcRn assays were performed at pH 6. The Fey receptors were loaded onto anti-penta-HIS1K (ForteBio, Cat #18-5122) biosensors at a concentration of 20 μg/mL. The loaded biosensors was then be dipped into an 8-point 1:3 dilution series of the test IgG molecules (including controls and the mutants described herein) in PBS with 0.1% BSA, 0.02% Tween-20 (pH 7.2) at a starting concentration of 300 nM. Kinetic analysis was performed using a 1:1 binding model and global fitting.
This is another data set of the same source.

The target of assay [10] is T2, human FcRn protein (MednaBio, E1032). The procedure: as §2
This is another data set of the same source.

Assay [11] concerns the target T1, human FcRIIA protein (MednaBio, E1033). Here is the method: as §2
The source holds these as a separate data set.

The target of assay [12] is T2, human FcRn protein (MednaBio, E1032). The procedure: as §2
This is another data set of the same source.

For assay [13] the target is unchanged. An outline of the steps: as §1
The source holds these as a separate data set.

The target of assay [14] is T3, human FcRI protein (MednaBio, E1031) (human, UniProt P12314 16-288, limits assumed).
T3 construct: Bought; loaded on anti-penta-HIS biosensors; also called FcγRI
T3 sequence (P12314 16-288 limits assumed): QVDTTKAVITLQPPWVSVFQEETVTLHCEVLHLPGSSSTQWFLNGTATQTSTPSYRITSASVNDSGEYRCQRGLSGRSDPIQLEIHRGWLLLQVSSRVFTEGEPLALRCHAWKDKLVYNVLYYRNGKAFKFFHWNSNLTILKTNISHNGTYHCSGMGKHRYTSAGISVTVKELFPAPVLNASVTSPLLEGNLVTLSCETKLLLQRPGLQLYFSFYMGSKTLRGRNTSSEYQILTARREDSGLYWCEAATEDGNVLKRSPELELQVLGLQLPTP
An outline of the steps:
as §1

The target of assay [15] is T1, human FcRIIA protein (MednaBio, E1033). An outline of the steps: as §1
The source holds these as a separate data set.

Assay [16] addresses T4, human FcRIIB/C protein (MednaBio, E1034) (human, UniProt P31994 43-217, limits assumed).
T4 construct: Bought as FcRIIB/C; also called FcγRIIB; CD32B
T4 sequence (looked up): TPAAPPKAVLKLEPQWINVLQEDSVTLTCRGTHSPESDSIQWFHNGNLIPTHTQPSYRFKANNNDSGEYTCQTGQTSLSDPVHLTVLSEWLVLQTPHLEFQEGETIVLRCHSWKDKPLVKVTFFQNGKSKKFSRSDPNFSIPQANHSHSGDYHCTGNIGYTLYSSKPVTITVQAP
An outline of the steps:
as §1

Where two headings read alike, the source gives them in different places.

T2 sequence (P55899 24-297 limits assumed, form in doubt, chain 1 of 2): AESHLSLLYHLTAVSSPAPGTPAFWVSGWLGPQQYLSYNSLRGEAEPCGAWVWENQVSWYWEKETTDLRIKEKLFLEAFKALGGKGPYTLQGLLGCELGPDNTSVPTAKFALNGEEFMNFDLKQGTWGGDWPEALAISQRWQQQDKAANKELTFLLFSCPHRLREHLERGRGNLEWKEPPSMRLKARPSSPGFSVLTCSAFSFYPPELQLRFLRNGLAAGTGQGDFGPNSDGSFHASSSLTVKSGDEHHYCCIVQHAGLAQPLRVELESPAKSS
T2 sequence (P61769 21-119 limits assumed, form in doubt, chain 2 of 2): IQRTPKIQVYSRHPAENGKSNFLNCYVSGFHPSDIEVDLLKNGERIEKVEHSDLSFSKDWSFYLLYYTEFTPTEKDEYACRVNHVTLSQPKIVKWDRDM

B1: wild-type human IgG2 control (antibody)
heavy: EVQLVQSGAEVKKPGESLRISCKGSGYSFSTYWISWVRQMPGKGLEWMGKIYPGDSYTNYSPSFQGQVTISADKSISTAYLQWSSLKASDTAMYYCARGYGIFDYWGQGTLVTVSSASTKGPSVFPLAPCSRSTSESTAALGCLVKDYFPEPVTVSWNSGALTSGVHTFPAVLQSSGLYSLSSVVTVPSSNFGTQTYTCNVDHKPSNTKVDKTVERKCCVECPPCPAPPVAGPSVFLFPPKPKDTLMISRTPEVTCVVVDVSHEDPEVQFNWYVDGVEVHNAKTKPREEQFNSTFRVVSVLTVVHQDWLNGKEYKCKVSNKGLPAPIEKTISKTKGQPREPQVYTLPPSREEMTKNQVSLTCLVKGFYPSDIAVEWESNGQPENNYKTTPPMLDSDGSFFLYSKLTVDKSRWQQGNVFSCSVMHEALHNHYTQKSLSLSPGK
light: SYELTQPPSVSVSPGQTASITCSGDNIGDQYAHWYQQKPGQSPVLVIYQDKNRPSGIPERFSGSNSGNTATLTISGTQAMDEADYYCATYTGFGSLAVFGGGTKLTVLGQPKAAPSVTLFPPSSEELQANKATLVCLISDFYPGAVTVAWKADSSPVKAGVETTTPSKQSNNKYAASSYLSLTPEQWKSHRSYSCQVTHEGSTVEKTVAPTECS
notes: Control IgG
As to B1, the Kd in assay [1] amounted to 89 nM; in assay [2] it was 10 nM; in assay [3] it was 89 nM; in assay [4], 10 nM; in assay [5], 89 nM; in [6], 10 nM. In addition, the Kd in [7] amounted to 89 nM; in [8] it was 10 nM; in assay [9], 89 nM; in assay [10], 10 nM; in [11] it was 89 nM; in assay [12], 10 nM. Further, the koff in assay [1] came to 0.039 s⁻¹; in assay [2], 0.0099 s⁻¹; in assay [3], 0.039 s⁻¹; in assay [4], 0.0099 s⁻¹; in [5], 0.039 s⁻¹; in assay [6], 0.0099 s⁻¹. Further, the koff in assay [7] was 0.039 s⁻¹; in [8] it was 0.0099 s⁻¹; in [9] it was 0.039 s⁻¹; in [10], 0.0099 s⁻¹; in assay [11] it was 0.039 s⁻¹; in assay [12] it was 0.0099 s⁻¹. For the same molecule, the kon in [1] amounted to 440000 M⁻¹ s⁻¹; in assay [2], 990000 M⁻¹ s⁻¹; in assay [3] it was 440000 M⁻¹ s⁻¹; in [4], 990000 M⁻¹ s⁻¹; in assay [5], 440000 M⁻¹ s⁻¹; in assay [6], 990000 M⁻¹ s⁻¹. Moreover, the kon was 440000 M⁻¹ s⁻¹ in [7]; 990000 M⁻¹ s⁻¹ in assay [8]; 440000 M⁻¹ s⁻¹ in assay [9]; 990000 M⁻¹ s⁻¹ in assay [10]; 440000 M⁻¹ s⁻¹ in [11]; 990000 M⁻¹ s⁻¹ in assay [12].

B2: anti-CD137 IgG4 with Fc variant G4m19 (antibody)
heavy: EVQLVQSGAEVKKPGESLRISCKGSGYSFSTYWISWVRQMPGKGLEWMGKIYPGDSYTNYSPSFQGQVTISADKSISTAYLQWSSLKASDTAMYYCARGYGIFDYWGQGTLVTVSSASTKGPSVFPLAPCSRSTSESTAALGCLVKDYFPEPVTVSWNSGALTSGVHTFPAVLQSSGLYSLSSVVTVPSSSLGTKTYTCNVDHKPSNTKVDKRVESKYGPPCPPCPAPEFLSVFLFPPKPKDTLMISRTPEVTCVVVDVEQEDPEVQFNWYVDGVEVHNAKTKPREEQFNSTYRVVSVLTVLHQDWLNGKEYKCKVSNKGFPSSIEKTISKAKGQPREPQVYTLPPSQEEMTKNQVSLTCLVKGFYPSDIAVEWESNGQPENNYKTTPPVLDSDGSFFLYSRLTVDKSRWQEGNVFSCSVMHEALHNHYTQKSLSLSLGK
light: SYELTQPPSVSVSPGQTASITCSGDNIGDQYAHWYQQKPGQSPVLVIYQDKNRPSGIPERFSGSNSGNTATLTISGTQAMDEADYYCATYTGFGSLAVFGGGTKLTVLGQPKAAPSVTLFPPSSEELQANKATLVCLISDFYPGAVTVAWKADSSPVKAGVETTTPSKQSNNKYAASSYLSLTPEQWKSHRSYSCQVTHEGSTVEKTVAPTECS
notes: copies: 2 + 2
Turning to B2, in assay [13], the equilibrium dissociation constant (Kd) is 13 nM, the off-rate constant (koff) worked out at 0.009 s⁻¹ and the kon stood at 690000 M⁻¹ s⁻¹.

B3: anti-CD137 IgG4 with Fc variant G4m25 (antibody)
heavy: EVQLVQSGAEVKKPGESLRISCKGSGYSFSTYWISWVRQMPGKGLEWMGKIYPGDSYTNYSPSFQGQVTISADKSISTAYLQWSSLKASDTAMYYCARGYGIFDYWGQGTLVTVSSASTKGPSVFPLAPCSRSTSESTAALGCLVKDYFPEPVTVSWNSGALTSGVHTFPAVLQSSGLYSLSSVVTVPSSSLGTKTYTCNVDHKPSNTKVDKRVESKYGPPCPPCPAPEFLGPSVFLFPPKPKDTLMISRTPEVTCVVVDVSQEDPEEQFNWYVDGVEVHNAKTKPREEQFNSTYRVVSVLTVLHQDWLNGKEYKCKVSNKGLPSSIEKTISKAKGQPREPQVYTLPPSQEEMTKNQVSLTCLVKGFYPSDIAVEWESNGQPENNYKTTPPVLDSDGSFFLYSRLTVDKSRWQEGNVFSCSVMHEALHNHYTQKSLSLSLGK
light: SYELTQPPSVSVSPGQTASITCSGDNIGDQYAHWYQQKPGQSPVLVIYQDKNRPSGIPERFSGSNSGNTATLTISGTQAMDEADYYCATYTGFGSLAVFGGGTKLTVLGQPKAAPSVTLFPPSSEELQANKATLVCLISDFYPGAVTVAWKADSSPVKAGVETTTPSKQSNNKYAASSYLSLTPEQWKSHRSYSCQVTHEGSTVEKTVAPTECS
notes: copies: 2 + 2
As for B3, the Kd in assay [14] was found to be 46 nM; in assay [15], 660 nM; in assay [13], 19 nM; in assay [16], 240 nM. The dissociation rate constant (koff) in assay [14] came out at 0.017 s⁻¹; in [15], 0.038 s⁻¹; in [13], 0.009 s⁻¹; in assay [16], 0.03 s⁻¹. Moreover, the kon stood at 380000 M⁻¹ s⁻¹ in assay [14], 57000 M⁻¹ s⁻¹ in assay [15], 480000 M⁻¹ s⁻¹ in [13] and 130000 M⁻¹ s⁻¹ in assay [16].

B4: anti-CD137 IgG4 with Fc variant G4m27 (antibody)
heavy: EVQLVQSGAEVKKPGESLRISCKGSGYSFSTYWISWVRQMPGKGLEWMGKIYPGDSYTNYSPSFQGQVTISADKSISTAYLQWSSLKASDTAMYYCARGYGIFDYWGQGTLVTVSSASTKGPSVFPLAPCSRSTSESTAALGCLVKDYFPEPVTVSWNSGALTSGVHTFPAVLQSSGLYSLSSVVTVPSSSLGTKTYTCNVDHKPSNTKVDKRVESKYGPPCPPCPAPEFLGPSVFLFPPKPKDTLMISRTPEVTCVVVDVEQEDPEVQFNWYVDGVEVHNAKTKPREEQFNSTYRVVSVLTVLHQDWLNGKEYKCKVSNKGLPSSIEKTISKAKGQPREPQVYTLPPSQEEMTKNQVSLTCLVKGFYPSDIAVEWESNGQPENNYKTTPPVLDSDGSFFLYSRLTVDKSRWQEGNVFSCSVMHEALHNHYTQKSLSLSLGK
light: SYELTQPPSVSVSPGQTASITCSGDNIGDQYAHWYQQKPGQSPVLVIYQDKNRPSGIPERFSGSNSGNTATLTISGTQAMDEADYYCATYTGFGSLAVFGGGTKLTVLGQPKAAPSVTLFPPSSEELQANKATLVCLISDFYPGAVTVAWKADSSPVKAGVETTTPSKQSNNKYAASSYLSLTPEQWKSHRSYSCQVTHEGSTVEKTVAPTECS
notes: copies: 2 + 2
In assay [14], B4 had a Kd of 66 nM, a koff of 0.025 s⁻¹ and a kon of 370000 M⁻¹ s⁻¹. In [13], this molecule displayed a Kd of 23 nM, an off-rate constant (koff) of 0.01 s⁻¹ and an on-rate constant (kon) of 450000 M⁻¹ s⁻¹. Moreover, in [16], binding was put at a Kd of 310 nM, the koff came to 0.039 s⁻¹ and the kon came to 130000 M⁻¹ s⁻¹.
